Values of other authors in PMC5158201.

Target: decoy IL-1 receptor (IL-1RII) (Homo sapiens) (UniProt P27930)
UniProt P27930, sequence (P27930 14-398): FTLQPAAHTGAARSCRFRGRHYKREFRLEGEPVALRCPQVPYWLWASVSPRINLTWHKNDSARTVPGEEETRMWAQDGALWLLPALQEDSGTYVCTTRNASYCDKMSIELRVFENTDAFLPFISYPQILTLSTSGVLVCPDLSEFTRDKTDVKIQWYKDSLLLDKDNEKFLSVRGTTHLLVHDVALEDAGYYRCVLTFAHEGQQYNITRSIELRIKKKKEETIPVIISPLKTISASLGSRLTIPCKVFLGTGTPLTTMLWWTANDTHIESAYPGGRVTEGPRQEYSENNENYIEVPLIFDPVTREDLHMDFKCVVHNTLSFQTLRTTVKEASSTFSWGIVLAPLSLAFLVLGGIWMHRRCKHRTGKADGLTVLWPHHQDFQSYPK

For IL-1α (from UniProt P01583), the Kd is listed as 0.03 nM.
